Laboratory results taken from patent US20230313187A1, “MODIFICATIONS OF MAMMALIAN CELLS USING ARTIFICIAL MICRO-RNA TO ALTER THEIR PROPERTIES AND THE COMPOSITIONS OF THEIR PRODUCTS” (DNA TWOPOINTO INC., priority 2020, published 2023).
Values joined by “and” are separate entries in the source; they are usually repeats but may differ in a detail not shown here. Identical values can stand only once.

Legend:
[1] = tested on: Cricetulus griseus GDP-Mannose 4,6-dehydratase (GMD), and GDP-fucose transporter 1 (GFT) mRNA; experiment: Inhibition of antibody fucosylation in CHO with amiRNA targeting GMD and GFT; type: cell-based; details: 14-day fed batch
Source text: A multi-hairpin amiRNA gene was designed to target both Cricetulus griseus GDP-Mannose 4,6-dehydratase (GMD), and GDP-fucose transporter 1 (GFT). […]
Multi-hairpin amiRNA sequence with SEQ ID NO: 200 was placed to the 3′ of an open reading frame encoding a red fluorescent protein (with nucleotide sequence SEQ ID NO: 279) and followed by a rabbit globin polyadenylation sequence. […]

[2] = tested on: Homo sapiens GDP-Mannose 4,6-dehydratase (GMD) and GDP-fucose transporter 1 (GFT) mRNA; experiment: Inhibition of antibody fucosylation in HEK cell pools, amiRNA directed toward GMD and GFT; type: cell-based; details: HEK pool
Source text: A second multi-hairpin amiRNA gene was designed to target both Homo sapiens GDP-Mannose 4,6-dehydratase (GMD) with mRNA sequence given by SEQ ID NO: 8, and GDP-fucose transporter 1 (GFT) with mRNA sequence given by SEQ ID NO: 9. The multi-hairpin amiRNA, with nucleotide sequence SEQ ID NO: 204, comprised four hairpins; the first hairpin comprised guide strand sequence SEQ ID NO: 47 (complementary to the mRNA for human GMD, with sequence SEQ ID NO: 8), immediately followed by loop sequence SEQ ID NO: 241 and passenger strand sequence SEQ ID NO: 132; the second hairpin comprised guide strand sequence SEQ ID NO: 52 (complementary to the mRNA for human GFT, with sequence given by SEQ ID NO: 9), immediately followed by loop sequence SEQ ID NO: 241 and passenger strand sequence SEQ ID NO: 137; the third hairpin comprised guide strand sequence SEQ ID NO: 50 (complementary to the mRNA for human GFT, with sequence SEQ ID NO: 9), immediately followed by loop sequence SEQ ID NO: 241 and passenger strand sequence SEQ ID NO: 135 and the fourth hairpin comprised guide strand sequence SEQ ID NO: 49 (complementary to the mRNA for human GMD, with sequence given by SEQ ID NO: 8), immediately followed by loop sequence SEQ ID NO: 241 and passenger strand sequence SEQ ID NO: 134. Each passenger strand sequence was complementary to its corresponding guide strand sequence, except that the bases in the passenger strand sequences corresponding to the 5′ base of the guide strand and the twelfth base of the guide strand were changed to be non-complementary. The first and twelfth bases of guide strand with SEQ ID NO: 47 are T and G respectively, the corresponding bases in the corresponding passenger strand sequence SEQ ID NO: 132 are C and A respectively. […]
The multi-hairpin amiRNA sequences were placed to the 3′ of an open reading frame encoding a red fluorescent protein (with nucleotide sequence SEQ ID NO: 279) and followed by a rabbit globin polyadenylation sequence. […]

Row | Molecule | G0 + G1 % (area) ([1]; afucosylated antibody heavy chain, CMV promoter) | G0F + G1F (% area) ([1]; fucosylated antibody heavy chain, BDL=below detection limit, listed as 200) | G0 + G1 % (area) ([2]; afucosylated antibody, 7-day transient culture) | Titer ([2]; antibody in culture supernatant, 7-day culture, listed as 204) | G0F + G1F (% area) ([2]; fucosylated antibody, 7-day transient culture, BDL=below detection limit, listed as 204)
1 | SEQ ID NO: 200: four-hairpin amiRNA, two guides to Cricetulus griseus GMD mRNA (35, 36) and two to GFT mRNA (41, 42) (nucleic acid) ATCTGATCTTCTGAAGAAAATATATTTCTTTTTATTCATAGCTCTTAACTAGTGGTGATAGCAATGTCAGCAGTGCCTTTAAACTTCTTGATTTCCCAAAGTGAAGCCACAGATGTTTGGGAAATAAAGAAGTTTACAAGTAAGGTTGACCATACTCTACTCTAGTTATATTCTTTAGGCACGAATGTGTGTTTAAAAAAAATAAAAACTAGTGGTGATAGCAATGTCAGCAGTGCCTTCCTCTTAGATCATATTCCAAGGTGAAGCCACAGATGCTTGGAATATAATCTAAGAGGCAAGTAAGGTTGACCATACTCTACTCTAGAGTTGTGTTTTAATGTATATTAATGTTACTAATGTGTTTACTAGTGGTGATAGCAATGTCAGCAGTGCCTTTCAAGTAAAATGAGTATGTGAGTGAAGCCACAGATGTCACATACTCCTTTTACTTGACAAGTAAGGTTGACCATACTCTACTCTAGGTTATTTTTAGTATGATTCTGTAAAAATGAATTAATACTAACTAGTGGTGATAGCAATGTCAGCAGTGCCTTCAATTAGTGGGATCACAACCCGTGAAGCCACAGATGGGGTTGTGATACCACTAATTGCAAGTAAGGTTGACCATACTCTACTCTAGTCAGTTTTATTGATAGTCTTTTCAGTATTATTGATAATCTT | 100 % (area) | no fucose was detectable by mass spectroscopy and BDL |  |  | 
2 | SEQ ID NO: 204: four-hairpin amiRNA, two guides to Homo sapiens GMD mRNA (47, 49) and two to GFT mRNA (52, 50) (nucleic acid) ATCTGATCTTCTGAAGAAAATATATTTCTTTTTATTCATAGCTCTTAACTAGTGGTGATAGCAATGTCAGCAGTGCCTTAAAACATCTTGATTTCACAAAGTGAAGCCACAGATGTTTGTGAAATAAAGATGTTTTCAAGTAAGGTTGACCATACTCTACTCTAGTTATATTCTTTAGGCACGAATGTGTGTTTAAAAAAAATAAAAACTAGTGGTGATAGCAATGTCAGCAGTGCCTTATTACTTGTAAACACTGGTTCGTGAAGCCACAGATGGAACCAGTGTCTACAAGTAATCAAGTAAGGTTGACCATACTCTACTCTAGAGTTGTGTTTTAATGTATATTAATGTTACTAATGTGTTTACTAGTGGTGATAGCAATGTCAGCAGTGCCTTTCACTACTGTGCTGGCCCCGCGTGAAGCCACAGATGGCGGGGCCAGAACAGTAGTGACAAGTAAGGTTGACCATACTCTACTCTAGGTTATTTTTAGTATGATTCTGTAAAAATGAATTAATACTAACTAGTGGTGATAGCAATGTCAGCAGTGCCTTTGTTGTGTAACAACATAATTTGTGAAGCCACAGATGAAATTATGTTATTACACAACACAAGTAAGGTTGACCATACTCTACTCTAGTCAGTTTTATTGATAGTCTTTTCAGTATTATTGATAATCTT |  |  | 100 % (area) | 126 mg/L and 120 mg/L | complete abolition of antibody fucosylation and BDL
